The assay deals with GST-HC-Pro^K (HC-Pro of turnip mosaic virus, FRNK motif mutated to FKNK) (turnip mosaic virus (TuMV)). The assay can be described thus: pull-down; 2 μg bait (GST-HC-Pro^R or GST-HC-Pro^K) and 2 μg prey (his-AtHEN1) in 50 mM Tris-HCl pH 7.5, 100 mM NaCl, 0.2% glycerol, 0.6% Triton X-100, 0.5 mM β-mercaptoethanol; 25 °C, 2 h; Glutathione Sepharose 4B; blot with α-His or α-GST.

B1: his-AtHEN1 (recombinant full-length Arabidopsis HEN1) (enzyme)
chain: MAGGGKHTPTPKAIIHQKFGAKASYTVEEVHDSSQSGCLGLAIPQKGPCLYRCHLQLPEFSVVSNVFKKKKDSEQSAAELALDKLGIRPQNDDLTVDEARDEIVGRIKYIFSDEFLSAEHPLGAHLRAALRRDGERCGSVPVSVIATVDAKINSRCKIINPSVESDPFLAISYVMKAAAKLADYIVASPHGLRRKNAYPSEIVEALATHVSDSLHSREVAAVYIPCIDEEVVELDTLYISSNRHYLDSIAERLGLKDGNQVMISRMFGKASCGSECRLYSEIPKKYLDNSSDASGTSNEDSSHIVKSRNARASYICGQDIHGDAILASVGYRWKSDDLDYDDVTVNSFYRICCGMSPNGIYKISRQAVIAAQLPFAFTTKSNWRGPLPREILGLFCHQHRLAEPILSSSTAPVKSLSDIFRSHKKLKVSGVDDANENLSRQKEDTPGLGHGFRCEVKIFTKSQDLVLECSPRKFYEKENDAIQNASLKALLWFSKFFADLDVDGEQSCDTDDDQDTKSSSPNVFAAPPILQKEHSSESKNTNVLSAEKRVQSITNGSVVSICYSLSLAVDPEYSSDGESPREDNESNEEMESEYSANCESSVELIESNEEIEFEVGTGSMNPHIESEVTQMTVGEYASFRMTPPDAAEALILAVGSDTVRIRSLLSERPCLNYNILLLGVKGPSEERMEAAFFKPPLSKQRVEYALKHIRESSASTLVDFGCGSGSLLDSLLDYPTSLQTIIGVDISPKGLARAAKMLHVKLNKEACNVKSATLYDGSILEFDSRLHDVDIGTCLEVIEHMEEDQACEFGEKVLSLFHPKLLIVSTPNYEFNTILQRSTPETQEENNSEPQLPKFRNHDHKFEWTREQFNQWASKLGKRHNYSVEFSGVGGSGEVEPGFASQIAIFRREASSVENVAESSMQPYKVIWEWKKEDVEKKKTDL
With B1, the fold pull-down signal was 0.2 to 0.3 fold.

(Values after paper PMC8473176.)
